Results published in publication PMC12421802.

Molecular target: mutant MAP7D1 p.R201W (MAP7D1:c.601C>T), His/Myc-tagged (human) (UniProt Q3KQU3)
Assay: pull-down; 600 µg lysate of HEK293T cells overexpressing His/Myc-MAP7D1 (wt or mutant) incubated with MagneHis Ni particles in 100 mM HEPES, 10 mM imidazole, 500 mM NaCl, 4°C, 4 h; eluted with 500 mM imidazole; western blot with Myc-tag and β-tubulin antibodies; β-tubulin normalised to precipitated Myc-MAP7D1

Sequence of UniProt Q3KQU3 (Q3KQU3 whole entry R201W): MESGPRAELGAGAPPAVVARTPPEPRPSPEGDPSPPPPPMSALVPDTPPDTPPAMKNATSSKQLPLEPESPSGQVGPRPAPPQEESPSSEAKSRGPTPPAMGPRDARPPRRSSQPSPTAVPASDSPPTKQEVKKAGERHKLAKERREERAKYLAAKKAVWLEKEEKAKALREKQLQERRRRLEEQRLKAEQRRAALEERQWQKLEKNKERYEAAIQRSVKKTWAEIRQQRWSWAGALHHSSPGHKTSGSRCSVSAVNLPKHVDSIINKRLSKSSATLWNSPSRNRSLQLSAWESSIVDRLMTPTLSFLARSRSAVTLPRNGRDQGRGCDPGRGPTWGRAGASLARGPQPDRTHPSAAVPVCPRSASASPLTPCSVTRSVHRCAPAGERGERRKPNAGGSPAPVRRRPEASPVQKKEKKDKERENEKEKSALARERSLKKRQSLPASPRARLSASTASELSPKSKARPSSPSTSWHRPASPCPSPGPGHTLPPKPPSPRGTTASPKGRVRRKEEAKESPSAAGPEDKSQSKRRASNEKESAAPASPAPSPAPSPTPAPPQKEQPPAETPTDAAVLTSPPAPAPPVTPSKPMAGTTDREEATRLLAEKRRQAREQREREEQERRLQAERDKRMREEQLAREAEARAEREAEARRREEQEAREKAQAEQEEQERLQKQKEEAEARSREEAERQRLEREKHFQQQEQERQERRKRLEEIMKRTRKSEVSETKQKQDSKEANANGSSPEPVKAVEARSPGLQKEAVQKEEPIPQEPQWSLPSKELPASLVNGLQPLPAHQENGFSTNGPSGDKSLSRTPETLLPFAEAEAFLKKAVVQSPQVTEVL

- decrease of co-precipitated tubulin relative to wild-type MAP7D1: 40%
Substance: β-tubulin (tubulin of microtubules) (from UniProt P07437 1-444) (natural protein)
